Data published in the supplement of paper PMC12042874.
± gives the uncertainty stated by the source.

Experiment: amyloid nucleation score (Sup35N fusion, yeast selection) (log enrichment); library NNK3; higher = more nucleation; inactive = no reads after selection
Summary of the method: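 The nucleation score, computed with DiMSum, is the log enrichment of output over input reads, centred on the mode score of non-aggregating sequences. Sequences with under 100 input reads were dropped. Reads were generated by Illumina sequencing of plasmid inserts from psi-negative yeast with Sup35N fused to peptides of 20 random codons, induced with 100 μM copper sulfate for 24 hours and grown 7 days at 30°C on medium lacking adenine and uracil.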

Row | Substance | amyloid nucleation score
1 | PIVRWVSSLLYVVRWLPRLA | inactive
2 | PIYMYLFSTHVSNQFVKGAF | 3.08 ± 0.06
3 | PKCRMSMA | inactive
4 | PKYALMRFRFYSGLR | inactive
5 | PLAGLELCMRRRWVEE | inactive
6 | PLFNRYVSF | inactive
7 | PLGVRQQWEGSQVDPCGLRA | inactive
8 | PLNNGHLLSMPICKIRLVKA | inactive
9 | PLYVQSG | inactive
10 | PMAELIWDLVLRLKLSNKKR | 1.43 ± 0.074
11 | PMHGGTSSQSYNNLLRRSVK | inactive
12 | PNGLKTGGETRGRFYKCYMY | inactive
13 | PNGREWIMKYVGDAGYRVLS | 0.515 ± 0.36
14 | PNKDSLWDPFKQQSRSEK | -0.455 ± 0.93
15 | PNWEWIVYKMLGTFVHSWVM | inactive
16 | PPCMYTMYCEYNVLQSSSKY | 1.64 ± 0.082
17 | PQDRFSE | 1.29 ± 0.14
18 | PQHLFST | inactive
19 | PRCMYRLVFICGPGFRCSAG | -0.07 ± 0.47
20 | PRDGERFLG | inactive
21 | PRKTFVKCNRRLNSW | inactive
22 | PRLAIKAHGVWVGKSFIGET | inactive
23 | PRNFFLRVMHY | inactive
24 | PRSEVTRTLYIFSVWHQMRI | inactive

Row | Substance | amyloid nucleation score
25 | PRTSKFVAVAFKV | inactive
26 | PRYFSRASSKNSRF | inactive
27 | PSCFLPFNCPITLVYTCSLF | 2.14 ± 0.07
28 | PSENKRGFPDLVFAMINSGI | inactive
29 | PSFMLVVIKVTYVMADSNMR | inactive
30 | PSGSVCGPHHIPHVDVSGIS | inactive
31 | PSHSLSGRCHV | inactive
32 | PSLRRTSLGSLKSSMANSWQ | inactive
33 | PSNYWNEFYFCSSIHSCGE | 3.28 ± 0.07
34 | PSRNYIVELS | inactive
35 | PSSFASP | inactive
36 | PSSKFVGGIS | inactive
37 | PTGFLLPDAGWKIYTGSLDV | inactive
38 | PTGMPYNLTWFFWHATMPLL | -0.255 ± 0.33
39 | PTIKDLDTSIFGYLLGSVGD | inactive
40 | PTKMCCLFTVIF | 2.13 ± 0.069
41 | PTPMNKKRHYHVDVASPFSL | inactive
42 | PTTMVPQPRPYSLRRTLAY | inactive
43 | PVALLTD | inactive
44 | PVAVLDG | 0.654 ± 0.18
45 | PVDIDPLGSFVD | inactive
46 | PVLARYL | inactive
47 | PVLQIIRLADRLWLDIG | inactive
48 | PVLSDNYLTDFAFCYQYYMS | inactive

Row | Substance | amyloid nucleation score
49 | PVNFFKKFMSAMEVRYHRTK | -0.046 ± 0.38
50 | PVNYVYLTRFH | inactive
51 | PVQPTEARNR | inactive
52 | PVYCDCSYVREGVTITITIH | inactive
53 | PWFNFECL | inactive
54 | PWLLVIIVLFGLYCRM | inactive
55 | PWLSVSRVVVGRSLDGNNCP | inactive
56 | PWPNVLLCDNDRLSFRYRSF | 0.972 ± 0.1
57 | PWSCISLFNFFGITPCWTLS | 0.491 ± 0.67
58 | PWSHSS | inactive
59 | PWSLWRTVKSPRKGGEQPRS | -0.317 ± 1.1
60 | PYETGRKCNA | inactive
61 | PYHGSSMLKIRVRGD | inactive
62 | PYKTWTINVLLWNLSCTFLN | 1.49 ± 0.096
63 | PYLAGWRSLIPFNTSLCSGC | inactive
64 | PYNVSLFMLRMVSIFFVQHL | inactive
65 | PYSIVSGPRIFYGCYHSFI | inactive
66 | PYYNRGFCGYGFSQVMEVL | inactive
67 | QAFDFTHHPFHDRSWNGHWS | inactive
68 | QARRSIYSISECGGGI | 0.234 ± 0.33
69 | QDFRLLSALRF | inactive
70 | QEVAMRAISLSLPARWSVPC | inactive
71 | QEWVRYYYFVLYFNYVNGSW | inactive
72 | QFEHF | inactive

Row | Substance | amyloid nucleation score
73 | QFIINDSFYINQNNRRYSKV | inactive
74 | QGGNAISRYKWDCIR | inactive
75 | QGLPVSVSFVGEIYLLLF | 2.32 ± 0.053
76 | QGNSRRSLINLHSLNKNILH | inactive
77 | QGNWHYWCKDVRKLSLPKEL | inactive
78 | QGSHRGMKITGISWTVLGYW | inactive
79 | QGVVV | inactive
80 | QISEFKDVLLCVCVKISLGR | 1.7 ± 0.09
81 | QITRLPSNYVYETWSEKVFY | inactive
82 | QKAYKYSDI | inactive
83 | QKQFYGWVAESFARGATIPR | 0.871 ± 0.21
84 | QLEYNYCDKLVT | inactive
85 | QLHTDYPFGACLFSCDGLDM | inactive
86 | QLVVRCPCYNETVG | inactive
87 | QLYSHNRYTLGYTMLSRFVS | inactive
88 | QMFSLTFIVMFLFFPSRGCR | inactive
89 | QMKKLWFF | inactive
90 | QMSFQSSYQVRLFLVPPFQW | 0.412 ± 0.23
91 | QMSGMFTLVDWT | inactive
92 | QMYSLWCKKCMFYDGCEGVS | inactive
93 | QNHSNVGTFDDSA | inactive
94 | QNRFDLPGMSQRSTHDRAPS | -0.03 ± 0.73
95 | QPLHCK | inactive
96 | QQCCTLVCWRRMI | inactive

Row | Substance | amyloid nucleation score
97 | QQSWFTIYDVILYR | inactive
98 | QRDVDLMVSIGTPTSNRYET | inactive
99 | QRISMIALDRFD | inactive
100 | QRKVSWHAGYSA | inactive
101 | QRLCCPRNL | inactive
102 | QRMTLNLDRCPMSYWGSTIP | inactive
103 | QRNMVSEGATRCLSTDFPCL | inactive
104 | QRNNFLLTMVTCFDLKL | inactive
105 | QRSEV | inactive
106 | QSCVIVLKIGFWDVHSSMTF | 0.426 ± 0.19
107 | QSFIRSFIVYVKDALGAHHG | inactive
108 | QTHMTFYVCMFRGTCNGNMC | 2.1 ± 0.051
109 | QVSFM | inactive
110 | QWFAWARQWL | inactive
111 | QWGSWE | inactive
112 | QWIGISNRLLYKDWLNWRYE | inactive
113 | QWILHNFTVGARPGPVRTKE | inactive
114 | QWKVLLRACHRLEDALCCIS | inactive
115 | QYANVGSCVCDRIIRCFYGW | inactive
116 | QYCDSMTLINQPAAIRGLLW | inactive
117 | QYDLDWFIGRSNARDGLTDW | inactive
118 | QYFRLLTLISRPFKTHRGVG | inactive
119 | QYLEAWRCTHFTVGALLLMG | inactive
120 | QYLHAGGHVIVGTWYEVNMG | 1.36 ± 0.16

Row | Substance | amyloid nucleation score
121 | QYVCVRS | inactive
122 | RACML | inactive
123 | RAECSISSIIIYCAGRPSLI | 1.07 ± 0.098
124 | RAFLL | inactive
125 | RAICGMNFCNISHLT | 3.05 ± 0.067
126 | RANLPRLFQNDHNSWLDCVA | inactive
127 | RARGDTIK | inactive
128 | RCDCLRRNGSLHSQFNVSGG | 1.02 ± 0.2
129 | RCLEERH | inactive
130 | RCLGLML | inactive
131 | RCLTEA | inactive
132 | RCMPRCALACTRLSPGRSVV | inactive
133 | RCSLLRNIG | inactive
134 | RCSWKTLPMYLMYCCTACHS | inactive
135 | RCVLSNSNLCFKFFRVQTME | inactive
136 | RCVRVIFSVMGDWVFISKNE | inactive
137 | RCYKMLDLSILDIRYIVMLR | inactive
138 | RCYYMAMVMYTLLPLLRAET | -0.074 ± 0.32
139 | RDFRKSIYTCLEYYWHMVVT | inactive
140 | RDISIFRFRYTRRSWWLSFG | inactive
141 | RDMFIYKTCMKVCVQLPYII | inactive
142 | RDMYLLLREHGKGTIGKPWG | inactive
143 | RDPASGVSMCTIIIVKGYTI | 0.57 ± 0.2
144 | RDSCFNIDFKEEVVRKVSMA | 0.827 ± 0.18

Row | Substance | amyloid nucleation score
145 | RDTGPPMFWREAVSRYR | inactive
146 | RDWCSNLMYYDYPVTEGCDT | inactive
147 | REFKY | inactive
148 | RELVNSNALGNFLWETVCFS | inactive
149 | REREF | inactive
150 | RETLS | inactive
151 | RFDESTRVCV | inactive
152 | RFDIK | inactive
153 | RFDWRLSCTGRNMVASLLFV | inactive
154 | RFEFMGFSYPCHLTWLLVGY | inactive
155 | RFEYMGNVMES | inactive
156 | RFIGGTYH | inactive
157 | RFIVCCKTGCVY | inactive
158 | RFNSWRSCIWLM | inactive
159 | RFQCWVWSQ | inactive
160 | RFSWNENVGVDGQHLPEVER | inactive
161 | RFSYSDTI | inactive
162 | RFTDRCTLHFQMFVVLRAVI | inactive
